In publication PMC4051777, “Characterization of an Alkali- and Halide-Resistant Laccase Expressed in E. coli: CotA from Bacillus clausii” (PLoS ONE, 2014):

What was measured:
purified protein [1] = substrate: COc1cccc(OC)c1O; assay: purified protein; assay type: biochemical, Shouchella clausii; conditions: pH 7 (implied by context), O2 as co-substrate, DMP 0-12.5 mM, substrate inhibition at high DMP
purified protein [2] = substrate: COc1cccc(OC)c1O; assay: purified protein; assay type: biochemical, Bacillus subtilis; conditions: pH 7, O2 as co-substrate, DMP 0-12.5 mM, substrate inhibition at high DMP

B1: cotA from B. clausii (Shouchella clausii KSM-K16) (protein)
chain: MELEKFVDPMPIMKTAIPKKTSKDGDYYEIEMKEFSQKLHRDLNPTRLWGYDGQFPGPTIEVMRGKPARIKWMNNLPDTHFLPIDRSIHHVAHEPEVRTVVHLHGSETTPASDGYPEAWFTKDFAEVGSFFEQETYEYPNDQRAATLWYHDHAMGITRLNVYAGLSGLYIIRDPREEQLNLPKGEFDIPLLIQDRSFNDDGSLFYPAQPANPAPNLPNPSVLPFFVGDTILVNGKVWPYLQVEPRKYRFRILNGSNSRSYQLALDSEAPFYQIASDGGLLRRTVSLQAFDIRPAERIEAIIDFSKFEGQTITLKNNASTDATADVMQFQVVLPLSGEDTSIIPQNLSYIPSLQQNDVKRIRNLKISGTTDEYGRPLLLLNNKLWSDPVEEKPCLGTTEIWSFVNVTNVPHPMHIHLVQFQLLDHRAFNVELYNENGQIELVGPTIPPKINERGWKDTITAPAGQITRVIARFAPFSGYYVWHCHILEHEDYDMMRPFVVIDPKTEKERR
notes: full length, codon-optimized gene in pETM13 (p133), E. coli BL21(DE3)
Question: B1 was tested. Which Km (purified protein [1]) did it give?
Answer: Its Km is 1020 µM.

B2: cotA from B. subtilis (Bacillus subtilis subsp. subtilis str. 168) (protein)
chain: MTLEKFVDALPIPDTLKPVQQSKEKTYYEVTMEECTHQLHRDLPPTRLWGYNGLFPGPTIEVKRNENVYVKWMNNLPSTHFLPIDHTIHHSDSQHEEPEVKTVVHLHGGVTPDDSDGYPEAWFSKDFEQTGPYFKREVYHYPNQQRGAILWYHDHAMALTRLNVYAGLVGAYIIHDPKEKRLKLPSDEYDVPLLITDRTINEDGSLFYPSAPENPSPSLPNPSIVPAFCGETILVNGKVWPYLEVEPRKYRFRVINASNTRTYNLSLDNGGDFIQIGSDGGLLPRSVKLNSFSLAPAERYDIIIDFTAYEGESIILANSAGCGGDVNPETDANIMQFRVTKPLAQKDESRKPKYLASYPSVQHERIQNIRTLKLAGTQDEYGRPVLLLNNKRWHDPVTETPKVGTTEIWSIINPTRGTHPIHLHLVSFRVLDRRPFDIARYQESGELSYTGPAVPPPPSEKGWKDTIQAHAGEVLRIAATFGPYSGRYVWHCHILEHEDYDMMRPMDITDPHK
notes: full length, 1542-bp PCR product from genomic DNA in pETM13 (p130), E. coli BL21(DE3); no fusions or tailing amino acids
Question: B2 was tested. Which Km (purified protein [2]) did it give?
Answer: The Km was 340 µM.
